In experiment [1] the target is T1, H3 protein (vaccinia virus, UniProt P07240 1-278).
T1 sequence: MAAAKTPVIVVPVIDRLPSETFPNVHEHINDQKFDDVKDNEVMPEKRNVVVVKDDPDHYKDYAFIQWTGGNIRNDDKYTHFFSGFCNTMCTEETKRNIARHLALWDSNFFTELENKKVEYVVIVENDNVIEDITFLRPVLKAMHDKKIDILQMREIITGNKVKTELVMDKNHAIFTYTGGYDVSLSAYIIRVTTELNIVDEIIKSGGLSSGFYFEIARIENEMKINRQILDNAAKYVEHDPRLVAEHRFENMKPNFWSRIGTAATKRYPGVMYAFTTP
Put plainly: ELISA on recombinant protein. In general terms: In an ELISA, binding on a coated surface is turned into a signal by an enzyme label.

The target of experiment [2] is T2, VACV A33 recombinant protein (vaccinia virus, UniProt P68616 89-185).
The target of experiment [3] is T2, VACV A33 recombinant protein. Kind of experiment: ELISA on recombinant VACV surface proteins.
Experiment [4] deals with T3, A27 protein (vaccinia virus, UniProt P11258 1-110).
T3 sequence: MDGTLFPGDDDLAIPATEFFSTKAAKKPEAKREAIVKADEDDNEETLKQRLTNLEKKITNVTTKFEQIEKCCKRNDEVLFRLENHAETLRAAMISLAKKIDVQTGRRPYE
Kind of experiment: ELISA on recombinant VACV surface proteins.

Experiment [5] deals with T1, H3 protein. Put plainly: ELISA on recombinant VACV surface proteins.
In experiment [6] the target is T4, L1 protein (vaccinia virus, UniProt P07612 1-183).
T4 sequence: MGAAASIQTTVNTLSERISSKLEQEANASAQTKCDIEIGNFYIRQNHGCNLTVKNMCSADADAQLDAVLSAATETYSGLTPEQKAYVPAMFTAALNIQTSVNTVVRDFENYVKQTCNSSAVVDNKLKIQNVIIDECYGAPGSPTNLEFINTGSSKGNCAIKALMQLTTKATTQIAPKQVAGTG
Kind of experiment: ELISA on recombinant VACV surface proteins.

The target of experiment [7] is B5 protein (vaccinia virus, UniProt Q01227 18-279). Put plainly: ELISA on recombinant VACV surface proteins.

B1: MV31 (antibody, V domains shown)
VH: EVQLAESGGGLVPPDGSLRLSCTASGFTFSNYWMYWFRQAPGKGLEWVASISGSRRNIDYSDSVKGRFTISRDNAKNTLFLQMNRLRGDDTAVYYCAREGETSTYFFDPWGQGVLVTASS
VL: QPVLTQPPTVSKSLGQSVTISCTGTSSDVGGYNYVSWYQQRPGKAPKLLIYEVTKRPSGVSDRFSGSKSGNTASLTISGLQAEDEADYYCSSYTTSNTYIFGTGTRLTVL
For the molecule B1, the binding result in experiment [1] is recorded as “binds”.

B2: MV26 (antibody, V domains shown)
VH: EVQLAESGGGLVQPGGSLRLSCAASGFTFSNYWMYWFRQAPGKGLEWVSSISGSRRNIHYSDSVRGRFTVSRDNAKSTLSLQMNSLRPEDTAVYYCAREGETSTFYFGYWGQGVLVTASS
VL: KPMLTQPPSVSVSPGQTARITCGGDNLGTKNVQWYQQKSAQAPVVVIYDDGERPSGIPERFSGSKSGNVATLTISGVEAGDDADYYCQVWDGSSDHPIFGRGTRLTVL
As to B2, in experiment [1], the binding result was “binds”.

B3: MV7 (antibody, V domains shown)
VH: QEQLVQSGGGLAKPGGSLRISCAASGFVFSRSAMHWVRQAPGKGLEWVSGISGGGATYYADSVKGRFTISRDNSKNTFSLQMNSLRLEDTAVYYCAKDRRRSVASSYFDSWGQGVLVTVSS
VL: QSVLTQPQSVSVSPGQTARISCGGDNIGSKNVHWYQQKPPQAPVLVIYAGTERPSGIPERFSGSNSGNTATLTISGVEAGDEADYYCQVWDGTREHVLFGGGTRLTVL
Regarding B3, the binding result in experiment [1] is reported as “binds”.

B4: EV42 (antibody, V domains shown)
VH: EVQLVESGPRLVKPSETLSLTCAVSGASITSNYWSWIRQPPGKGLEWIGRTPGSSGSTDYNPSLKSRVTISTDTSKNQFSLKLTSVTAADTAVYFCARRYTDSYYLYYFDFWSQGVLVTVSS
VL: QSALTQPPSVSGSPGQSVTISCTGTNSDIGSYKYVSWYQKHPGKAPKLVIYDVSQRPSGVSDRFSGSKSGNTASLTISGLQAEDEADYYCSSYAGINTFNVFGSGTKLTIL
On to B4, for which, in experiment [2], the Kd was 0.095 nM.

B5: EV4 (antibody, V domains shown)
VH: QVQLQESGPGLVKPSETLSLTCAVSGGSISNNYWSWVRQAPGKGLEWIGRIYGSSGSSSYNPSLTGRLTISRDTSKNQLSLRLNSMTAADTAFYYCVRQYFGPRGAFDFWGQGLRVTVSS
VL: QPGLTQSPSASEAARKSVTISCSGSSSNIGSNSVSWYQQLPETAPKLLVYYNDRRASSVSDRFSGSKSGTSASLAISGLQTEDEADYYCAAWDNSLSGYVFGAGTRLTVL
Turning to B5, the binding result in experiment [3], in experiment [4], in experiment [5], in experiment [6] and in experiment [7] was “no binding” each time.

As a reminder, the Kd is the equilibrium constant for the complex coming apart.

The record behind these values is patent EP4669352A1 (dated 2025).
